Assay results: US20120045459

B1: GST-tagged recombinant full-length MTMR6 (NM-004685.2) (protein)
chain: MEHIRTTKVEQVKLLDRFSTSNKSLTGTLYLTATHLLFIDSHQKETWILHHHIASVEKLALTTSGCPLVIQCKNFRTVHFIVPRERDCHDIYNSLLQLSKQAKYEDLYAFSYNPKQNDSERLQGWQLIDLAEEYKRMGVPNSHWQLSDANRDYKICETYPRELYVPRIASKPIIVGSSKFRSKGRFPVLSYYHQDKEAAICRCSQPLSGFSARCLEDEHLLQAISKANPVNRYMYVMDTRPKLNAMANRAAGKGYENEDNYSNIRFQFVGIENIHVMRSSLQKLLEVNGTKGLSVNDFYSGLESSGWLRHIKAVMDAAIFLAKAITVENASVLVHCSDGWDRTSQVCSLGSLLLDSYYRTIKGFMVLIEKDWISFGHKFSERCGQLDGDPKEVSPVFTQFLECVWHLTEQFPQAFEFSEAFLLQIHEHIHSCQFGNFLGNCQKEREELKLKEKTYSLWPFLLEDQKKYLNPLYSSESHRFTVLEPNTVSFNFKFWRNMYHQFDRTLHPRQSVFNIIMNMNEQNKQLEKDIKDLESKIKQRKNKQTDGILTKELLHSVHPESPNLKTSLCFKEQTLLPVNDALRTIEGSSPADNRYSEYAEEFSKSEPAVVSLEYGVARMTC
B2: GST-tagged recombinant PTPsigma catalytic fragment (PTPRS-CTF; BC104812 aa1156-1501) (protein)
chain: IVMVPLRKSRGGQFLTPLGSPEDMDLEELIQDISRLQRRSLRHSRQLEVPRPYIAARFSVLPPTFHPGDQKQYGGFDNRGLEPGHRYVLFVLAVLQKSEPTFAASPFSDPFQLDNPDPQPIVDGEEGLIWVIGPVLAVVFIICIVIAILLYKNKPDSKRKDSEPRTKCLLNNADLAPHHPKDPVEMRRINFQTPDSGLRSPLREPGFHFESMLSHPPIPIADMAEHTERLKANDSLKLSQEYESIDPGQQFTWEHSNLEVNKPKNRYANVIAYDHSRVILQPIEGIMGSDYINANYVDGYRCQNAYIATQGPLPETFGDFWRMVWEQRSATIVMMTRLEEKSRIKC
B3: PTP1B (from Upstate) (protein)
chain: MEMEKEFEQIDKSGSWAAIYQDIRHEASDFPCRVAKLPKNKNRNRYRDVSPFDHSRIKLHQEDNDYINASLIKMEEAQRSYILTQGPLPNTCGHFWEMVWEQKSRGVVMLNRVMEKGSLKCAQYWPQKEEKEMIFEDTNLKLTLISEDIKSYYTVRQLELENLTTQETREILHFHYTTWPDFGVPESPASFLNFLFKVRESGSLSPEHGPVVVHCSAGIGRSGTFCLADTCLLLMDKRKDPSSVDIKKVLLEMRKFRMGLIQTADQLRFSYLAVIEGAKFIMGDSSVQDQWKELSHEDLEPPPEHIPPPPRPPKRILEPHN

These proteins were tested against phosphotyrosine peptide (Upstate).
With B1 the “in vitro phosphatase activity (malachite green, released phosphate)” value (“in vitro phosphatase activity” below) was “only negligible activity against p-Tyr”. B2 was tested, and the “in vitro phosphatase activity” value was “exhibiting significant activity against a tyrosine-phosphorylated peptide (p-Tyr)”. For B3, the “in vitro phosphatase activity” value was “PTP1B, a bona fide PTPase, dephosphorylated p-Tyr exclusively”.
